Results taken from US20200109196A1 (MOGAM INSTITUTE FOR BIOMEDICAL RESEARCH, published 2020).
Where a chain is given by its changes, count along the chain named.

Key:
Assay in all cases: ELISA on coated antigen (0.25 µg/ml), antibody 3 µg/ml, HRP anti-human IgG Fc, OD450
[1] = target: T1, recombinant human CEACAM-1/CD66a protein (R&D systems; Cat. No. 2244-CM) (human, UniProt P13688 35-428)
T1 construct: Bought protein; captured on anti-His (His1K) biosensors in the Octet assay, so it carries a His tag; also called HCCM1; recombinant CEACAM-1/CD66a protein
T1 sequence (looked up): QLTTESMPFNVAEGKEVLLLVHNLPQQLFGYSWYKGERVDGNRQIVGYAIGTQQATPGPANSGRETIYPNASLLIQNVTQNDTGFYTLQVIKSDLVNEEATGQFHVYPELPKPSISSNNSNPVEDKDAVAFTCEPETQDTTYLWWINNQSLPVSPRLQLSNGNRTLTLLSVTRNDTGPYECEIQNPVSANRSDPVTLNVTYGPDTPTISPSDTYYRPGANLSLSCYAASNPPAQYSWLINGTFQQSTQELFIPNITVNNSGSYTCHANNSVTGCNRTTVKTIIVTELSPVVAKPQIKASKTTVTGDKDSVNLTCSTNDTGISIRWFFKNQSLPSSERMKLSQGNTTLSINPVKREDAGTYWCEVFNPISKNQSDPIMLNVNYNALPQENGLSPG
From the text: (§1) All of the recombinant human CEACAM-1/CD66a protein (R&D systems; Cat No. 2244-CM, HCCM1), recombinant human CEACAM-5/CD66e protein (R&D systems; Cat. No. 4128-CM, HCCM5), recombinant human CEACAM-6/CD66c protein (R&D systems; Cat. No. 3934-CM, HCCM6), recombinant human CEACAM-3/CD66d protein (Sino Biological; Cat. No. 11933-H08H, HCCM3), human B7-H5/Gi24/VISTA protein (Sino Biological; Cat. No. 13482-H08H, HVISTA), recombinant human CEACAM-1/CD66a protein Bulk (R&D systems; Cat. No. 2244-CM, HCCM1 (bulk)), recombinant human CEACAM1-N domain-Kappa protein (Mogam, in-house production, HCCM1-N domain-kappa), and BSA protein (2.5 μg each) were dissolved in 10 ml of PBS, respectively, and dispensed into a 96-well plate at 100 μl/well, which was incubated at 4° C. overnight. Thereafter, each well was treated with 300 μl of 1% (v/v) bovine serum albumin, and incubated at 37° C. for 1 hour.
(§2) The diluted antibodies were dispensed into each well coated with each protein at 100 μl/well, and incubated at 37° C. for 1 hour. Then, each well was washed 3 times with a washing buffer prepared by diluting 10 μl of Tween 20 (Sigma-Aldrich; Cat. No. P9146) in 990 μl of PBS. Thereafter, 2 μl of HRP-conjugated human anti-IgG-Fc antibody (anti-human IgG Fc, Sigma Cat. No. A0170) was diluted in 10 ml of PBS, added to the wells at 100 μl/well, and incubated for 1 hour.
(§3) After completion of the reaction, the wells were washed three times with the washing buffer, and 100 μl of TMB solution was added to each well to induce color development. Then, 100 μl of 2 M H₂SO₄ was added to each well to stop the reaction, and the absorbance was measured at a wavelength of 450 nm.

[2] = target: T2, recombinant human CEACAM1-N domain-Kappa protein (Mogam, in-house production) (human, UniProt P13688 35-142, limits assumed)
T2 construct: domain: N domain; In-house fusion; also called HCCM1-N domain-kappa; HCCM1-N-domain-kappa
T2 sequence (looked up): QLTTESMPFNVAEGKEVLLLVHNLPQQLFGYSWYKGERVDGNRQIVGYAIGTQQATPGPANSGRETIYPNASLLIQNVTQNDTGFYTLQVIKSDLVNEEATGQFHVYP
From the text: as §1, §2, §3

[3] = target: T3, recombinant human CEACAM-5/CD66e protein (R&D systems; Cat. No. 4128-CM) (human, UniProt P06731 35-685)
T3 construct: Bought protein; also called HCCM5
T3 sequence (looked up): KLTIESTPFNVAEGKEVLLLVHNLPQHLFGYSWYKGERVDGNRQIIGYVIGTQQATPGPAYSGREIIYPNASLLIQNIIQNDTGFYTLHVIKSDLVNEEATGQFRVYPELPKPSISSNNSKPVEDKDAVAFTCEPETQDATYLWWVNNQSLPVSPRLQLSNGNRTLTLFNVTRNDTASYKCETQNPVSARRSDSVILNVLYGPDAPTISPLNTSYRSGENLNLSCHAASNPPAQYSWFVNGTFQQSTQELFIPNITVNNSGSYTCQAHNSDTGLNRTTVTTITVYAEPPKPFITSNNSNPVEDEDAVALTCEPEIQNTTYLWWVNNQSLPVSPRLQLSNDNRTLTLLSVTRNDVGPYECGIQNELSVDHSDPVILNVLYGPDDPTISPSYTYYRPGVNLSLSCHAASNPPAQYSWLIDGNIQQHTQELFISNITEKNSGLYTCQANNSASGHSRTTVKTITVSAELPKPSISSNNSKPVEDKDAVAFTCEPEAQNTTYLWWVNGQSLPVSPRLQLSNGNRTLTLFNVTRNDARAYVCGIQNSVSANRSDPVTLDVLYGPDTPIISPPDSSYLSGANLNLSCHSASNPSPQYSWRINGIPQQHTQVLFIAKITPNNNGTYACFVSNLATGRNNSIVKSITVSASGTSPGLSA
From the text: as §1, §2, §3

B1: C18 (antibody, human IgG4 S228P, lambda, V domains shown)
VH: EVQLLESGGGLVQPGGSLRLSCAASGFTFSNYDMSWVRQAPGKGLEWVSGISHSSGSKYYADSVKGRFTISRDNSKNTLYLQMNSLRAEDTAVYYCARDPLPCLIPKCSYYYAMDVWGQGTLVTVSS
VL: QSVLTQPPSAPGTPGQRVTISCSGSSSNIGSNAVTWYQQLPGTAPKLLIYADSHRPSGVPDRFSGSKSGTSASLAISGLRSEDEADYYCGSWDDSLNAYVFGGGTKLTVLG
binding result [1]: binds
binding result [2]: binds

B2: C19 (antibody, human IgG4 S228P, lambda, V domains shown)
VH: EVQLLESGGGLVQPGGSLRLSCAASGFTFSGYAMSWVRQAPGKGLEWVSGIYHDGGSTYYADSVKGRFTISRDNSKNTLYLQMNSLRAEDTAVYYCARVTVLCTTYGCSSYDGMDVWGQGTLVTVSS
VL: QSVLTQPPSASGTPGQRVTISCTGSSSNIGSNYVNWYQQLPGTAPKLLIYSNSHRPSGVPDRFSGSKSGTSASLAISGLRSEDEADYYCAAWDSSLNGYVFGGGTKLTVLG
binding result [1]: binds
binding result [3]: binds
binding result [2]: binds

B3: C22 (antibody, human IgG4 S228P, lambda, V domains shown)
VH: EVQLLESGGGLVQPGGSLRLSCAASGFTFSDYDMSWVRQAPGKGLEWVSMIYSGSSSKYYADSVKGRFTISRDNSKNTLYLQMNSLRAEDTAVYYCAKAPLPFYFRPKSYYYAMDVWGQGTLVTVSS
VL: B1 VL with P11S, A33N, D52N, D94S
binding result [1]: binds
binding result [3]: binds
binding result [2]: binds

B4: C17 (antibody, human IgG4 S228P, lambda, V domains shown)
VH: EVQLLESGGGLVQPGGSLRLSCAASGFTFSDYSMSWVRQAPGKGLEWVSVIYPDDGNTYYADSVKGRFTISRDNSKNTLYLQMNSLRAEDTAVYYCARGSIWWLSLIPSSYNAMDVWGQGTLVAVSS
VL: B1 VL with P11S, S31N, T35N, D52N, S91A, D94A, A98G
binding result [3]: binds
binding result [2]: binds

B5: C15 (antibody, human IgG4 S228P, lambda, V domains shown)
VH: EVQLLESGGGLVQPGGSLRLSCAASGFTFSSYSMSWVRQAPGKGLEWVSSISPNGGNKYYADSVKGRFTISRDNSKNTLYLQMNSLGAEDTAVYYCAKDPYNIYQPLFDYWGQGTLVTVSS
VL: QSVLTQPLSASGTPGQRVTISCSGSSSNIGNNYVNWYQQLPGTAPKLLIYANSNRPSGVPDRFSGSKSGTSASLAISGLRSEEEADYYCGTWDASLSAYVFGGGTKLTVLG
binding result [2]: binds
